“And” between values parts separate entries of the source, which are not always exact repeats. Equal entries are not always repeated.
Tests used:
[1] = Kinetics analysis of CYP204A1 and CYPSS; type: biochemical; conditions: for Specific activity: pH 7.5, 15° C., 60 minutes; for Km / Vmax: Lineweaver-Burk plot
Method: Moreover, the activity decrease rate when the substrate concentration is increased from 10 μM to 100 μM can also be obtained by conducting the conversion of 4-cholesten-3-one at a substrate concentration of 0.1 to 500 μM and then examining the relationship between the substrate concentration and the activity of the enzyme protein. Specifically, there is prepared 1 ml of a reaction solution, which comprises […] CYP204A1 or […] CYPSS204A, 96 μg/ml spinach-derived ferredoxin, 0.1 U/ml spinach-derived ferredoxin reductase protein, 3 U/ml glucose dehydrogenase, 60 mM glucose, 2 mM NADH and 2 mM NADPH. Tris-HCl is then added to the reaction mixture to adjust to pH 7.5. 20 μl of 4-cholesten-3-one used as a substrate, dissolved in DMSO to have a final concentration of 0.1, 0.5, 1, 2, 5, 10, 20, 50, 100 or 500 μM, is added to the reaction mixture. The reaction is initiated by addition of NADH and NADPH, and it can be carried out at 200 rpm at 15° C. for 60 minutes.
(§1) To 20 ml of the cell suspension prepared in (2) above, 680 μl of X10 Bug Buster (Novagen), 20 μl of Benzonase (Novagen), and 2 ml of 40 mg/ml lysozyme were added, and the obtained mixture was then shaken at 30° C. for 30 minutes to disintegrate the cells. Thereafter, the reaction solution was centrifuged to obtain the cell-free extract. The obtained, approximately 20 ml of cell-free extract was dialyzed against 1 L of Buffer R (20 mM KPB pH 7.4, 20% glycerol) two times, and the deposited precipitate was then removed by centrifugation. The cell-free extract obtained as a supernatant herein was used in the subsequent experiments.
Using the cell-free extract prepared in (3) above, conversion of 4-cholesten-3-one was carried out at substrate concentration of 0.1 to 500 μM, and the relationship between the substrate concentration and the enzyme protein activity was examined. The reaction solution was prepared, such that 1 ml of the buffer comprised 220 pmol CYP204A1 or 250 pmol CYPSS, 96 μg/ml spinach-derived ferredoxin, 0.1 U/ml spinach-derived ferredoxin reductase protein, 3 U/ml glucose dehydrogenase, 60 mM glucose, 2 mM NADH, and 2 mM NADPH. Tris-HCl was added to the reaction solution so as to adjust it to pH 7.5. 20 μl of 4-cholesten-3-one, which had been dissolved in DMSO to a final concentration of 0.1, 0.5, 1, 2, 5, 10, 20, 50, 100 or 500 μM, was added. The reaction was initiated by addition of NADH and NADPH, and it was carried out at 200 rpm at 15° C. for 60 minutes. Thereafter, 1.5 ml of ethyl acetate was added to the reaction solution to terminate the reaction, and extraction was carried out. Then, extraction was carried out again with 0.75 ml of ethyl acetate. The obtained ethyl acetate phase was solidified using evaporator, and the residue was then dissolved in 200 μl of methanol. Thereafter, progesterone was detected by HPLC analysis. The relationship between the substrate concentration and the enzyme protein activity, and kinetics parameters calculated by production of Lineweaver-Burk plot, is shown in Table 5.

[2] = Analysis of the optimum pH, conversion of 4-cholesten-3-one by cell-free extract; type: biochemical; conditions: for Specific activity: 4-cholesten-3-one to progesterone, 30° C., 14 hours; for optimum pH (pH of highest activity): conversion of 4-cholesten-3-one to progesterone
Method: as §1
Using the cell-free extract prepared in (3) above, conversion of 4-cholesten-3-one was carried out at various pH values. The reaction solution was prepared, such that 1 ml of Buffer R comprised […] CYP204A1 or […] CYPSS204A, 64 μg/ml spinach-derived ferredoxin, a 0.1 U/ml spinach-derived ferredoxin reductase protein, 3 U/ml glucose dehydrogenase, 60 mM glucose, 50 μg/ml 4-cholesten-3-one, 2 mM NADH, and 2 mM NADPH. Then, 562 μl of 200 mM Buffer having various pH values was added to 1 ml of the reaction solution, so as to adjust the pH of the reaction solution. The reaction was initiated by the addition of NADH and NADPH, and it was carried out at 200 rpm at 30° C. for 14 hours. Thereafter, 1.5 ml of ethyl acetate was added to the reaction solution to terminate the reaction, and extraction was carried out. Then, extraction was carried out again with 0.75 ml of ethyl acetate. The obtained ethyl acetate phase was solidified using evaporator, and the residue was then dissolved in 200.d of methanol. Thereafter, progesterone was detected by HPLC analysis. The enzyme protein activity for conversion of 4-cholesten-3-one to progesterone under various pH conditions is shown in Table 1. The enzyme protein activity was indicated by the amount (g) of progesterone generated per hour per mol of P450.

[3] = 4-cholesten-3-one concn. 0.1 μM
[4] = 4-cholesten-3-one concn. 0.5 μM
[5] = 4-cholesten-3-one concn. 10 μM (reference)
[6] = 4-cholesten-3-one concn. 100 μM
[7] = 4-cholesten-3-one concn. 500 μM

Molecule | Specific activity ([2]; KPB pH 6.2) [g/h/mol] | Specific activity ([2]; KPB pH 6.7) [g/h/mol] | Specific activity ([2]; KPB pH 7.1) [g/h/mol] | Specific activity ([2]; KPB pH 7.4) [g/h/mol] | Specific activity ([2]; KPB pH 7.9) [g/h/mol] | Specific activity ([2]; TES pH 6.6) [g/h/mol] | Specific activity ([2]; TES pH 6.8) [g/h/mol] | Specific activity ([2]; TES pH 7.3) [g/h/mol] | Specific activity ([2]; TES pH 7.5) [g/h/mol] | Specific activity ([2]; TES pH 8.0) [g/h/mol] | Specific activity ([2]; Tris-HCl pH 7.5) [g/h/mol] | Specific activity ([2]; Tris-HCl pH 8.2) [g/h/mol] | Specific activity ([2]; Tris-HCl pH 8.7) [g/h/mol] | optimum pH (pH of highest activity) [2] | Specific activity [1, 3] [mmol/min/mol] | Specific activity [1, 4] [mmol/min/mol] | Specific activity ([1]; 4-cholesten-3-one concn. 1 μM) [mmol/min/mol] | Specific activity ([1]; 4-cholesten-3-one concn. 2 μM) [mmol/min/mol] | Specific activity ([1]; 4-cholesten-3-one concn. 5 μM) [mmol/min/mol] | Specific activity relative to that at 10 μM [1, 5] | other results
CC(C)CCC[C@@H](C)[C@H]1CC[C@H]2[C@@H]3CCC4=CC(=O)CC[C@]4(C)[C@H]3CC[C@]12C [4-cholesten-3-one] | – | – | – | – | – | – | – | – | – | – | – | – | – | – | – | – | – | – | – | – | substrate inhibition ([1]; 4-cholesten-3-one 0.1 to 500 μM): causes substrate inhibition
CYP204A1: P450scc from Novosphingobium aromaticivorans ATCC 700278, amino acid sequence SEQ ID NO: 23 (protein, Novosphingobium aromaticivorans) MARAATAAGNGLPLLDGGVPLLGHLAQFFRDPVSVLKRGYRSKGRLFAMNFMGQRMNVMLGPEHNRFFFEETDKLLSIRESMPFFLKMFSPEFYSFAEMDEYLRQRSIIMPRFKAASMKQYVPVMVEESLNLVERLGEEGEFDLIPTLGPVVMDIAAHSFMGREFHEKLGHEFFELFRDFSGGMEFVLPLWLPTPKMVKSQRAKRKLHAILQSWIDKRRAAPLDPPDFFQTMIETKYPDGRPVPDEIIRHLILLLVWAGHETTAGQVSWALADLLQNPDYQKVLRGEISSLLGGSDGRDLGWEQAVAMEKMDLALRETERLHPVAYMLSRKARADIERDGYVIRKGEFVLLAPSVSHRMEETFRNPDAYDPERFNPANPDAQIESNSLIGFGGGVHRCAGVNFARMEMKVLVAILLQNFDMELMDEVRPIAGASTYWPAQPCRVRYRRRKLDGSEAGADMAALARAAGCPAHT | 0 | 0 | 0 | 0 | 0 | 0 | 0 | 39 | 97 | 82 | 207 | 114 | 0 | 7.5 | 2.2 | 15.3 | 25.2 | 32.2 | 36.1 | 100 | Specific activity ([1]; 4-cholesten-3-one concn. 10 μM): 43.1 mmol/min/mol; Specific activity ([1]; 4-cholesten-3-one concn. 20 μM): 42.7 mmol/min/mol; Specific activity ([1]; 4-cholesten-3-one concn. 50 μM): 33.5 mmol/min/mol; Specific activity relative to that at 10 μM [1, 6]: 66.6; Specific activity [1, 6]: 28.7 mmol/min/mol; Specific activity [1, 7]: 20.1 mmol/min/mol; Km ([1]; 4-cholesten-3-one): 1 µM and ~1 µM; Vmax ([1]; 4-cholesten-3-one): 47.4 mmol/min/mol
Sphingomonas subterranea NBRC16086 P450scc CYPSS204A (CYPSS), wild type, SEQ ID NO: 2 (Novosphingobium subterraneum) (protein) MASAAAGADGLPLLDGGVPLLGHLAQFFRDPVSVLKRGYRSKGRLFAMNFMGQRMNVMLGPEHNRFFFEETDKLLSIRESMPFFLKMFSPEFYSFAEMDEYLRQRAIIMPRFKAASMKQYVPVMVEESLNLVERLGEEGEFDLIPTLGPVVMDIAAHSFMGREFHEKLGHEFFELFRDFSGGMEFVLPLWLPTPKMVKSQRAKKKLHAILQSWIDKRRASPLDPPDFFQTMIETKYPDGRAVPDEIIRHLILLLVWAGHETTAGQVSWALADLLQNPGYQQVLREEVASLLGGSDGRALGWEQAVAMEKMDLALRETERLHPVAYMLSRKASADIERDGYRIRKGEFVLLAPSVSHRMEETFRNADAYDPERFNPQNPDAQIESNSLIGFGGGVHRCAGVNFARMEMKVLVAILLQNFDMELIDEVRPIAGASTYWPAQPCRVRYKRRKLDGAGGSADVAALAKAAGCPAHA | 0 | 19 | 21 | 0 | 0 | 0 | 16 | 76 | 165 | 168 | 301 | 269 | 40 | 7.5 | 1.9 | 20.0 | 36.5 | 49.5 | 70.4 | 100 | Vmax value compared with that of CYP204A1 ([1]; 4-cholesten-3-one): approximately 1.7 times; Specific activity ([1]; 4-cholesten-3-one concn. 10 μM): 67.2 mmol/min/mol; Specific activity ([1]; 4-cholesten-3-one concn. 20 μM): 72.4 mmol/min/mol; Specific activity ([1]; 4-cholesten-3-one concn. 50 μM): 71.2 mmol/min/mol; Specific activity relative to that at 10 μM [1, 6]: 90.0; Specific activity [1, 6]: 60.5 mmol/min/mol; Specific activity [1, 7]: 33.6 mmol/min/mol; Km ([1]; 4-cholesten-3-one): 1.1 µM and ~1 µM; Vmax ([1]; 4-cholesten-3-one): 78.7 mmol/min/mol

From patent US20120178124A1, “STEROL SIDE CHAIN-CLEAVING ENZYME PROTEIN AND USE THEREOF” (MITSUBISHI CHEMICAL CORPORATION, priority 2009, published 2012)
